# Results taken from article PMC7192611, “A transient α-helix in the N-terminal RNA recognition motif of polypyrimidine tract binding protein senses RNA secondary structure”.
# How the values were obtained:
# PTB RRM1 WT [1] = molecular target: T1, PTB RRM1 WT (human, UniProt P26599-1 41-163); test: NMR; docked alpha3 79%; ITC (30 C) and NMR (40 C): 20 mM NaCl, 10 mM NaH2PO4 pH 6.5. EMSA: 20 mM NaH2PO4 pH 7.2, 100 mM NaCl, 5 mM MgCl2, 5% glycerol, 1 mM DTT, 50 ug/ml yeast tRNA, 40 ug/ml BSA, room temperature; settings: protein: recombinant; hairpin, loop GCUUU
# PTB RRM1 WT [2] = molecular target: T1, PTB RRM1 WT; test: NMR; docked alpha3 78%; ITC (30 C) and NMR (40 C): 20 mM NaCl, 10 mM NaH2PO4 pH 6.5. EMSA: 20 mM NaH2PO4 pH 7.2, 100 mM NaCl, 5 mM MgCl2, 5% glycerol, 1 mM DTT, 50 ug/ml yeast tRNA, 40 ug/ml BSA, room temperature; settings: protein: recombinant; hairpin, loop UCUU
# PTB RRM1 WT [3] = molecular target: T1, PTB RRM1 WT; test: NMR; docked alpha3 66%; ITC (30 C) and NMR (40 C): 20 mM NaCl, 10 mM NaH2PO4 pH 6.5. EMSA: 20 mM NaH2PO4 pH 7.2, 100 mM NaCl, 5 mM MgCl2, 5% glycerol, 1 mM DTT, 50 ug/ml yeast tRNA, 40 ug/ml BSA, room temperature; settings: protein: recombinant; hairpin, loop UCUGU
# PTB RRM1 P142G = PTB RRM1 P142G (human, UniProt P26599-1 41-163, P142G); test: NMR; alpha3 helicity increases on binding; ITC (30 C) and NMR (40 C): 20 mM NaCl, 10 mM NaH2PO4 pH 6.5. EMSA: 20 mM NaH2PO4 pH 7.2, 100 mM NaCl, 5 mM MgCl2, 5% glycerol, 1 mM DTT, 50 ug/ml yeast tRNA, 40 ug/ml BSA, room temperature; settings: protein: recombinant; tags: intein tag removed; label: 13C/15N in some NMR samples; hairpin, 5-nt loop UCUUU (positions 10-14)
# PTB RRM1 L151G = PTB RRM1 L151G (human, UniProt P26599-1 41-163, L151G); test: NMR; alpha3 does not fold; ITC (30 C) and NMR (40 C): 20 mM NaCl, 10 mM NaH2PO4 pH 6.5. EMSA: 20 mM NaH2PO4 pH 7.2, 100 mM NaCl, 5 mM MgCl2, 5% glycerol, 1 mM DTT, 50 ug/ml yeast tRNA, 40 ug/ml BSA, room temperature; settings: protein: recombinant; tags: intein tag removed; label: 13C/15N in some NMR samples; hairpin, 5-nt loop UCUUU (positions 10-14)
# PTB RRM1 N143G/R146G = PTB RRM1 N143G/R146G (human, UniProt P26599-1 41-163, N143G;R146G); test: ITC; Kd1; up to 3-fold; ITC (30 C) and NMR (40 C): 20 mM NaCl, 10 mM NaH2PO4 pH 6.5. EMSA: 20 mM NaH2PO4 pH 7.2, 100 mM NaCl, 5 mM MgCl2, 5% glycerol, 1 mM DTT, 50 ug/ml yeast tRNA, 40 ug/ml BSA, room temperature; settings: protein: recombinant; tags: intein tag removed; label: 13C/15N in some NMR samples; hairpin, 5-nt loop UCUUU (positions 10-14)
# PTB RRM1 K94A = PTB RRM1 K94A (human, UniProt P26599-1 41-163, K94A); test: ITC; Kd1; almost 7-fold; ITC (30 C) and NMR (40 C): 20 mM NaCl, 10 mM NaH2PO4 pH 6.5. EMSA: 20 mM NaH2PO4 pH 7.2, 100 mM NaCl, 5 mM MgCl2, 5% glycerol, 1 mM DTT, 50 ug/ml yeast tRNA, 40 ug/ml BSA, room temperature; settings: protein: recombinant; tags: intein tag removed; label: 13C/15N in some NMR samples; hairpin, 5-nt loop UCUUU (positions 10-14)
# PTB RRM1 WT [4] = molecular target: T1, PTB RRM1 WT; test: ITC; Kd1, two independent site model, 30 C; ITC (30 C) and NMR (40 C): 20 mM NaCl, 10 mM NaH2PO4 pH 6.5. EMSA: 20 mM NaH2PO4 pH 7.2, 100 mM NaCl, 5 mM MgCl2, 5% glycerol, 1 mM DTT, 50 ug/ml yeast tRNA, 40 ug/ml BSA, room temperature; settings: protein: recombinant; label: 13C/15N in some NMR samples; hairpin, 5-nt loop UCUUU (positions 10-14)
# PTB RRM1 WT [5] = molecular target: T1, PTB RRM1 WT; test: NMR; docked alpha3 55%; ITC (30 C) and NMR (40 C): 20 mM NaCl, 10 mM NaH2PO4 pH 6.5. EMSA: 20 mM NaH2PO4 pH 7.2, 100 mM NaCl, 5 mM MgCl2, 5% glycerol, 1 mM DTT, 50 ug/ml yeast tRNA, 40 ug/ml BSA, room temperature; settings: protein: recombinant; hairpin, loop UCGUU
# PTB RRM1 WT [6] = molecular target: T1, PTB RRM1 WT; test: NMR; alpha3 formed as with SL UCUUU; ITC (30 C) and NMR (40 C): 20 mM NaCl, 10 mM NaH2PO4 pH 6.5. EMSA: 20 mM NaH2PO4 pH 7.2, 100 mM NaCl, 5 mM MgCl2, 5% glycerol, 1 mM DTT, 50 ug/ml yeast tRNA, 40 ug/ml BSA, room temperature; settings: protein: recombinant; hairpin, 9-nt loop with UUCUU at its 5' end
# PTB RRM1 WT [7] = molecular target: T1, PTB RRM1 WT; test: NMR; 45 C; modest shift changes; ITC (30 C) and NMR (40 C): 20 mM NaCl, 10 mM NaH2PO4 pH 6.5. EMSA: 20 mM NaH2PO4 pH 7.2, 100 mM NaCl, 5 mM MgCl2, 5% glycerol, 1 mM DTT, 50 ug/ml yeast tRNA, 40 ug/ml BSA, room temperature; settings: protein: recombinant; single strand
# PTB RRM1 WT [8] = molecular target: T1, PTB RRM1 WT; test: NMR; docked alpha3 49%; ITC (30 C) and NMR (40 C): 20 mM NaCl, 10 mM NaH2PO4 pH 6.5. EMSA: 20 mM NaH2PO4 pH 7.2, 100 mM NaCl, 5 mM MgCl2, 5% glycerol, 1 mM DTT, 50 ug/ml yeast tRNA, 40 ug/ml BSA, room temperature; settings: protein: recombinant; hairpin, UUCG tetraloop
# T1 sequence (P26599 41-163): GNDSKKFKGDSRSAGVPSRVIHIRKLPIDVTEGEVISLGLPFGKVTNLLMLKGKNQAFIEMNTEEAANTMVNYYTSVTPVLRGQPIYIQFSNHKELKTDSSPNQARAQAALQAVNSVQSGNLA
# Sequence of PTB RRM1 N143G/R146G (P26599 41-163 N143G/R146G): as the sequence (P26599 41-163) above, with N103G, R106G counted along it
# Sequence of PTB RRM1 K94A (P26599 41-163 K94A): as the sequence (P26599 41-163) above, with K54A counted along it
# Sequence of PTB RRM1 P142G (P26599 41-163 P142G): as the sequence (P26599 41-163) above, with P102G counted along it
# Sequence of PTB RRM1 L151G (P26599 41-163 L151G): as the sequence (P26599 41-163) above, with L111G counted along it
binder,measurement,setting,value
GGGACCUGGGCUUUCCAGGUCCC (structured_RNA) [SL GCUUU],binding result,PTB RRM1 WT [1],binds
GGGACCUGGUCUUCCAGGUCCC (structured_RNA) [SL UCUU_],binding result,PTB RRM1 WT [2],binds
GGGACCUGGUCUGUCCAGGUCCC (structured_RNA) [SL UCUGU],binding result,PTB RRM1 WT [3],binds
GGGACCUGGUCUUUCCAGGUCCC (structured_RNA) [SL UCUUU],binding result,PTB RRM1 P142G,binds
same,binding result,PTB RRM1 L151G,binds
same,binding signal,PTB RRM1 N143G/R146G,~3 fold loss of affinity vs WT
same,binding signal,PTB RRM1 K94A,~7 fold loss of affinity vs WT
same,Kd,PTB RRM1 WT [4],100 ± 20 nM
GGGACCUGGUCGUUCCAGGUCCC (structured_RNA) [SL UCGUU],binding result,PTB RRM1 WT [5],binds
GAUGGAUUCUUAUGCUCCAUC (structured_RNA) [hsa-mir-136 stem-loop],binding result,PTB RRM1 WT [6],binds
CUCUCU (ssRNA) [CUCUCU ssRNA],binding result,PTB RRM1 WT [7],binds
GGGACCUGGUUCGCCAGGUCCC (structured_RNA) [SL UUCG],binding result,PTB RRM1 WT [8],binds
